Laboratory results as given in patent US20240226163A1 (Regeneron, published 2024).

Legend:
[1] = biological target: T1, HLA-A*02:01 presenting THBS3 116-125 peptide (…) (human); experiment: flow cytometry, peptide-pulsed T2 cells
T1 construct: On peptide-pulsed T2 cells

[2] = biological target: T2, HLA-A*02:01 presenting LPIN2 823-832 peptide (…) (human); experiment: flow cytometry, peptide-pulsed T2 cells
T2 construct: On peptide-pulsed T2 cells

[3] = biological target: T3, HLA-A*02:01 presenting SCL25A19 111-120 peptide (…) (human); experiment: flow cytometry, peptide-pulsed T2 cells
T3 construct: On peptide-pulsed T2 cells

[4] = biological target: T4, HLA-A*02:01 presenting CELSR3 1594-1603 peptide (…) (human); experiment: flow cytometry, peptide-pulsed T2 cells
T4 construct: On peptide-pulsed T2 cells

[5] = biological target: T5, HLA-A*02:01 presenting PAPPA2 307-316 peptide (…) (human); experiment: flow cytometry, peptide-pulsed T2 cells
T5 construct: On peptide-pulsed T2 cells

[6] = biological target: T6, HLA-A*02:01 presenting FAT4 4053-4062 peptide (…) (human); experiment: flow cytometry, peptide-pulsed T2 cells
T6 construct: On peptide-pulsed T2 cells

[7] = biological target: T7, HLA-A*02:01 presenting MAGE-A10 254-263 peptide (…) (human); experiment: flow cytometry, peptide-pulsed T2 cells
T7 construct: On peptide-pulsed T2 cells

[8] = biological target: T8, HLA-A*02:01 presenting CCDC36 417-426 peptide (…) (human); experiment: flow cytometry, peptide-pulsed T2 cells
T8 construct: On peptide-pulsed T2 cells

[9] = biological target: T9, HLA-A*02:01 presenting MAGE-A4 230-239 peptide (…) (human); experiment: flow cytometry, peptide-pulsed T2 cells
T9 construct: On peptide-pulsed T2 cells
Method: (§1) Samples were run on an IntelliCyt iQue flow cytometer (Intellicyt) and results were analyzed using Forecyte analysis software (Intellicyt) to calculate the mean fluorescent intensity (MFI) after gating for live cells. MFI values were plotted in Graphpad Prism using a four-parameter logistic equation over a 12-point response curve to calculate EC50 values. The secondary antibody alone (i.e., no primary antibody) for each dose-response curve was also included in the analysis as a continuation of the three-fold serial dilution and was represented as the lowest dose. The signal to noise (S/N) was determined by taking the ratio of the highest MFI on the dose response curve to the MFI in the secondary-alone wells.

[10] = biological target: T9, HLA-A*02:01 presenting MAGE-A4 230-239 …; experiment: flow cytometry, peptide-pulsed T2 cells, 100 nM antibody
Method: as §1

[11] = biological target: T10, HLA-A*02:01 presenting MAGE-A8 232-241 peptide (…) (human); experiment: as above
T10 construct: On peptide-pulsed T2 cells
Method: as §1

[12] = biological target: T1, HLA-A*02:01 presenting THBS3 116-125 …; experiment: as above
Method: as §1

[13] = biological target: T2, HLA-A*02:01 presenting LPIN2 823-832 …; experiment: as above
Method: as §1

[14] = biological target: T3, HLA-A*02:01 presenting SCL25A19 111-120 …; experiment: as above
Method: as §1

[15] = biological target: T4, HLA-A*02:01 presenting CELSR3 1594-1603 …; experiment: as above
Method: as §1

[16] = biological target: T5, HLA-A*02:01 presenting PAPPA2 307-316 …; experiment: as above
Method: as §1

[17] = biological target: T6, HLA-A*02:01 presenting FAT4 4053-4062 …; experiment: as above
Method: as §1

[18] = biological target: T7, HLA-A*02:01 presenting MAGE-A10 254-263 …; experiment: as above
Method: as §1

[19] = biological target: T8, HLA-A*02:01 presenting CCDC36 417-426 …; experiment: as above
Method: as §1

binding result [1]: no binding (tested: 100 nM)
binding result [2]: no binding (tested: 100 nM)
binding result [3]: no binding (tested: 100 nM)
binding result [4]: no binding (tested: 100 nM)
binding result [5]: no binding (tested: 100 nM)
binding result [6]: no binding (tested: 100 nM)
binding result [7]: no binding (tested: 100 nM)
binding result [8]: no binding (tested: 100 nM)
EC50 [9]: 4.7 nM
Antibody Binding Ratio (pulsed cell MFI/Unpulsed cell MFI) [10]: 513
Antibody Binding Ratio (pulsed cell MFI/Unpulsed cell MFI) [11]: 870
Antibody Binding Ratio (pulsed cell MFI/Unpulsed cell MFI) [12]: 1
Antibody Binding Ratio (pulsed cell MFI/Unpulsed cell MFI) [13]: 0.9
Antibody Binding Ratio (pulsed cell MFI/Unpulsed cell MFI) [14]: 0.8
Antibody Binding Ratio (pulsed cell MFI/Unpulsed cell MFI) [15]: 0.8
Antibody Binding Ratio (pulsed cell MFI/Unpulsed cell MFI) [16]: 0.9
Antibody Binding Ratio (pulsed cell MFI/Unpulsed cell MFI) [17]: 1
Antibody Binding Ratio (pulsed cell MFI/Unpulsed cell MFI) [18]: 0.9
Antibody Binding Ratio (pulsed cell MFI/Unpulsed cell MFI) [19]: 1
B1: mAbM34852N (antibody, V domains shown)
VH: EVQLLESGGGLVQPGGSLRLTCAASGFTFRSYAMSWVRQAPGKGLEWVSTISGNSDSTYYADSVKGRFTISRENSKNTLYLQMNSLRAEDTAVYYCAKDLHITMVRGAIPADVFDIWGQGTMVTVSS
VL: not shown
notes: Mouse constant region (detected with anti-mouse Fc secondary)
